Substrate in this data set: CC(=O)N[C@H]1[C@H](Oc2ccc([N+](=O)[O-])cc2)O[C@H](CO)[C@@H](O[C@@H]2O[C@H](CO)[C@@H](O)[C@H](O)[C@H]2NC(C)=O)[C@@H]1O
Nature of the data set: purified protein. Conditions: 0.1 M sodium acetate pH 5.5, 30 °C, 10 min, 0-500 µM substrate. The format is biochemical, Vibrio harveyi.

B1: VhChiA (Vibrio harveyi) (protein)
chain: APTAPSIDMYGSNNLQFSKIELAMETTSGYNDMVKYHELAKIKVKFNQWSGTSGDTYNVYFDGVKVATGAITGSQTTASFEYGQGGLYQMEIEACDATGCSKSAPVEITIADTDGSHLKPLTMNVDPNNKSYNTDPSIVMGTYFVEWGIYGRDYTVDNMPVDNLTHILYGFIPICGPNESVKSVGGNSFNALQTACRGVNDYEVVIHDPWAAYQKSFPQAGHEYSTPIKGNYAMLMALKQRNPDLKIIPSIGGWTLSDPFYDFVDKKNRDTFVASVKKFLKTWKFYDGVDIDWEFPGGGGAAADKGDPVNDGPAYIALMRELRVMLDELEAETGRTYELTSAIGVGYDKIEDVDYADAVQYMDYIFAMTYDFYGGWNNVPGHQTALYCGSFMRPGQCDGGGVDENGEPYKGPAYTADNGIQLLLAQGVPANKLVLGTAMYGRGWEGVTPDTLTDPNDPMTGTATGKLKGSTAQGVWEDGVIDYKGIKSFMLGANNTGINGFEYGYDAQAEAPWVWNRSTGELITFDDHRSVLAKGNYAKSLGLAGLFSWEIDADNGDILNAMHEGMAGGVVTPPNR
As a reminder, the Km is the substrate concentration at which the rate is half of its maximum. As for B1, the Km stood at 216 µM.
